Test results taken from patent US7220837.

T1: membrane-associated tissue factor (Innovin, Dade), P13726
T1 chain: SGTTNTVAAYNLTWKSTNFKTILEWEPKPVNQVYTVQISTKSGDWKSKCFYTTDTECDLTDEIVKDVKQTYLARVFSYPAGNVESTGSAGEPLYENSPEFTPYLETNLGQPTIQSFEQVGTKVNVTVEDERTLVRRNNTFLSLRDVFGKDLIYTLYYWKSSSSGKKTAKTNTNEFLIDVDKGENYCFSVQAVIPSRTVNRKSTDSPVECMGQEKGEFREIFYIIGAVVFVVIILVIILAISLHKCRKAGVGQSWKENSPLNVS


How the values were obtained:
[1] = biological target: membrane-associated tissue factor (Innovin, Dade) (UniProt P13726)
[2] = biological target: T1, membrane-associated tissue factor …

Row | Molecule | activity in the competitive assay of Example 6 [1] | activity in the competitive assay of Example 6 [2]
1 | Factor VII mutant Q11E33I34F35 | displayed similar activity as the Q11E33F34I35 mutant | 
2 | factor VII mutant Q11E33D36 (protein) ANAFLEELRQGSLERECKEEQCSFEEAREIFEDADRTKLFWISYSDGDQCASSPCQNGGSCKDQLQSYICFCLPAFEGRNCETHKDDQLICVNENGGCEQYCSDHTGTKRSCRCHEGYSLLADGVSCTPTVEYPCGKIPILEKRNASKPQGRIVGGKVCPKGECPWQVLLLVNGAQLCGGTLINTIWVVSAAHCFDKIKNWRNLIAVLGEHDLSEHDGDEQSRRVAQVIIPSTYVPGTTNHDIALLRLHQPVVLTDHVVPLCLPERTFSERTLAFVRFSLVSGWGQLLDRGATALELMVLNVPRLMTQDCLQQSRKVGDSPNITEYMFCAGYSDGSKDSCKGDSGGPHATHYRGTWYLTGIVSWGQGCATVGHFGVYTRVSQYIEWLQKLMRSEPRPGVLLRAPFP |  | had 70% the activity of the Q11E33 mutant
3 | factor VII F5K (protein) ANAKLEELRPGSLERECKEEQCSFEEAREIFKDAERTKLFWISYSDGDQCASSPCQNGGSCKDQLQSYICFCLPAFEGRNCETHKDDQLICVNENGGCEQYCSDHTGTKRSCRCHEGYSLLADGVSCTPTVEYPCGKIPILEKRNASKPQGRIVGGKVCPKGECPWQVLLLVNGAQLCGGTLINTIWVVSAAHCFDKIKNWRNLIAVLGEHDLSEHDGDEQSRRVAQVIIPSTYVPGTTNHDIALLRLHQPVVLTDHVVPLCLPERTFSERTLAFVRFSLVSGWGQLLDRGATALELMVLNVPRLMTQDCLQQSRKVGDSPNITEYMFCAGYSDGSKDSCKGDSGGPHATHYRGTWYLTGIVSWGQGCATVGHFGVYTRVSQYIEWLQKLMRSEPRPGVLLRAPFP |  | 33% of the activity of wild type factor VII
